The data set “SEC” concerns the molecule itself. Description: SEC.
Data set [1] deals with the molecule itself. Nature of the data set: SEC; SEC profile of cell-free synthesized ORF14 in DDM detergent micelles. Background: Size exclusion chromatography separates by hydrodynamic size, large species first.

B1: nsp9, full-length (natural protein)
chain: NNELSPVALRQMSCAAGTTQTACTDDNALAYYNTTKGGRFVLALLSDLQDLKWARFPKSDGTGTIYTELEPPCRFVTDTPKGPKVKYLYFIKGLNNLNRGMVLGSLAATVRLQ
notes: also called fl nsp9
The stoichiometry N is a count of units in the complex or per binding partner. Regarding B1, the “stoichiometry N” value in “SEC” amounted to 2.

B2: ORF14 (ORF9c) protein, full-length (natural protein)
chain: MLQSCYNFLKEQHCQKASTQKGAEAAVKPLLVPHHVVATVQEIQLQAAVGELLLLEWLAMAVMLLLLCCCLTD
notes: also called OFR14
As to B2, in data set [1], the “stoichiometry N” value was about 9.

These data come from article PMC8141814 (Frontiers in Molecular Biosciences, 2021).
